For this experiment, the target named is EZH2 subunit of purified human PRC2 (human) (UniProt Q15910).

Consider one substance from paper PMC3951439.

Chain of EZH2 subunit of purified human PRC2 (human) (Q15910 whole entry): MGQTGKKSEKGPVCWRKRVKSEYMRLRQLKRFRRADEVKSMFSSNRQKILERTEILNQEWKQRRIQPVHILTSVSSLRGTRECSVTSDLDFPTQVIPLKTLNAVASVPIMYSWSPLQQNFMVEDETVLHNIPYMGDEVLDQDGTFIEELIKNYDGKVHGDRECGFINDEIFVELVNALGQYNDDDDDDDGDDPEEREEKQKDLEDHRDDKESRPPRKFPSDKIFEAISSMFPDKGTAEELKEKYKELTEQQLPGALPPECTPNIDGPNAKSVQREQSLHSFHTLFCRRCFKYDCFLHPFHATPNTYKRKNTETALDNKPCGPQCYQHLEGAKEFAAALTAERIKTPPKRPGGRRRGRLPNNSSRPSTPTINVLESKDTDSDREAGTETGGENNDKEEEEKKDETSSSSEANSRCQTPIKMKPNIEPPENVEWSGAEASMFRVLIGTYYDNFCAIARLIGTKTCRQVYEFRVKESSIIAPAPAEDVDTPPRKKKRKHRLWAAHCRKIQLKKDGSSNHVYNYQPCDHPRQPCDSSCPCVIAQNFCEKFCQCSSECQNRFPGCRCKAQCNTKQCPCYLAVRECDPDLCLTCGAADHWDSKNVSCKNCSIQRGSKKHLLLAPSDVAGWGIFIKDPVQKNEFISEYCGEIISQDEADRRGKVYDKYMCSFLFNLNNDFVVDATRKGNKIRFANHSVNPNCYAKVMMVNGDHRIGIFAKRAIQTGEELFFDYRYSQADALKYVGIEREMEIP

In the case of “H3 peptide (18 to 37) containing K27Ile (from UniProt P84243 19-38)”, the IC50 of inhibition of PRC2 methyltransferase activity in vitro, peptide titrated was 8.9 µM.
